Reference: the DeepSol protein solubility set

Test: soluble on expression in E. coli; label from the status in PepcDB or PDB records
In the case of “MSPVDFKDKVVIITGAGGGLGKYYSLEFAKLGAKVVVNDLGGALNGQGGNSKAADVVVDEIVKNGGVAVADYNNVLDGDKIVETAVKNFGTVHVIINNAGILRDASMKKMTEKDYKLVIDVHLNGAFAVTKAAWPYFQKQKYGRIVNTSSPAGLYGNFGQANYASAKSALLGFAETLAKEGAKYNIKANAIAPLARSRMTESIMPPPMLEKLGPEKVAPLVLYLSSAENELTGQFFEVAAGFYAQIRWERSGGVLFKPDQSFTAEVVAKRFSEILDYDDSRKPEYLKNQYPFMLNDYATLTNEARKLPANDASGAPTVSLKDKVVLITGAGAGLGKEYAKWFAKYGAKVVVNDFKDATKTVDEIKAAGGEAWPDQHDVAKDSEAIIKNVIDKYGTIDILVNNAGILRDRSFAKMSKQEWDSVQQVHLIGTFNLSRLAWPYFVEKQFGRIINITSTSGIYGNFGQANYSSSKAGILGLSKTMAIEGAKNNIKVNIVAPHAETAMTLSIMREQDKNLYHADQVAPLLVYLGTDDVPVTGETFEIGGGWIGNTRWQRAKGAVSHDEHTTVEFIKEHLNEITDFTTDTENPKSTTESSMAILSAVGGD”, the “soluble on expression in E. coli” value is reported as “soluble”.
For “MGHHHHHHSHPSSPDSLHYLSPTGVNEYLMALWSVGSVVQDYDSDKLFPAFGFGAQVPPDWQVSHEFALNFNPSNPYCAGIQGIVDAYRQALPQVRLYGPTNFAPIINHVARFAAQAAHQGTASQYFMLLLLTDGAVTDVEATREAVVRASNLPMSVIIVGVGGADFEAMEQLDADGGPLHTRSGQAAARDIVQFVPYRRFQNAPREALAQTVLAEVPTQLVSYFRAQGWAPLKPLPP”, the “soluble on expression in E. coli” value was “not soluble”.
For “MTISEVSKKYELSADTLRYYERIGLIPPVNRNKSGIRSFTEEDCEWVNFIKCMRGAGLSIETLIEYVAMFQQGSSTIKARKELLIEQRNQLAKRIEEMQKTLERLNFKIDRYEEGIIEKEKVLKSSRNKKMEAVSYE”, the “soluble on expression in E. coli” value was “not soluble”.
For “MTTLTLNTSLLSSRRILAAFSGGLDSTVLLHQLVLWRERHPDVTLRAIHIHHGLSPHADSWVRHCETVCERWQVPLVVERVTLADNGLGIEAHAREARYRAFAQTLLPGEVLATAQHLDDQCETFLLALKRGSGPAGLSAMGERSPFAGTLLLRPLLRETRKTLEQWAVRHGLCWIEDESNQDDAYDRNFLRLRALPLLQQRWPHFPAAVARSATLCAEQERLLDELLASDLTDCITAEGTLRLSPLMSMSDVRRAAILRRWLAMRNAPMPSRDALERIWQEVALARDDASPCLRFGDHEIRRYQSQLWWIKSVAGQHETTVAWPVWQTPLALPAGLGTVQLVPGGELRRPREEESVSIRFKAPGVLHIVGRNGGRKLKKIWQEQGIPPWRRDTTPLLFYGETLIAAAGVFVTREGAAEDKEGVSLVWHA”, the “soluble on expression in E. coli” value was “not soluble”.
With “PPLYVPEQLVVHKETHQAHVMIGSRGYNAYDDKRTALYLLNNILGGPGMNSRLNVSLRERRGLVYTVESNLTSYTDTGAFCIYFGTDPEDVDTCLKLTYKELKRMRDVKMTSSQLMAAKKQLIGQIGVASDNNENNALGMAKTFLHYNKYESSESVFRRIEALTAEGLLEVANEMFAEEYLSTLIYR” the “soluble on expression in E. coli” value was “not soluble”.
With “ILEQDLNDFMSTGAHGLDLYQLVVGGTAPMLNLVEKGKIPPPATTPEKAGMYELGVNFMAKHHMKQLSVNHWAVDNRERSLYNSLAKTYAE” the “soluble on expression in E. coli” value was “not soluble”.
In the case of “MKICLIDETGAGDGALSVLAARWGLEHDEDNLMALVLTPEHLELRKRDEPKLGGIFVDFVGGAMAHRRKFGGGRGEAVAKAVGIKGDYLPDVVDATAGLGRDAFVLASVGCRVRMLERNPVVAALLDDGLARGYADAEIGGWLQERLQLIHASSLTALTDITPRPQVVYLDPMFPHKQKSALVKKEMRVFQSLVGPDLDADGLLEPARLLATKRVVVKRPDYAPPLANVATPNAVVTKGHRFDIYAGTPV”, the “soluble on expression in E. coli” value is reported as “not soluble”.
With “MDLFDLIFPPPPQSPSKLHPTQNHILPPEPLNRDFGDTRKNHKKAQPRRTTKAPSTSSPTIHDRQTPPRPTTPKSPTEKLLPIYHKFADGTEVVNPAAYAQRGFGWVKQNNTARVSWAKWAQSTKKCDDDIYGLKWIEERYPNWRDSNFRIRERRRSRSRSPQLSDNGSEDISIYLGRANSSSPNPTATGSETSYGSPTDAIYIPRNY” the “soluble on expression in E. coli” value was “not soluble”.
In the case of “QLAAIDAFDRLTALMTSHFDIDVAFVGLMDEHEERFVACEGANWRTLAREDTICTHTILSDETMVVEDTHEDPRFAEVDALKRLNIRSYAGGRITDREGNAIGAVCCTDGEPRRYTQTERDDLQRFADEVEEQLLLRRRLQGDR”, the “soluble on expression in E. coli” value is reported as “not soluble”.
In the case of “MQEGLVVVESCPRLGWAMESPENGTRQTAYEIEIREAFTGRSVWNSGKVTSSQSQLVPTEGADICLNNPFNYSWRVRVWDETDTPSEWSQEAKFRLASDDLSSGKWIGAITRKDSHLPEGRKFHGGELKKPEVKAAWEAVDTLAKKSICLRRTFQTGEAKGKNANRKSGKKIVEATAYVCGLGFYEFSLNGKKIGDSEFAPLWSDYDKSVYYNTYDVTEQLQDGENVVGILLGNGFYNVQGGRYRKLQISFGPPTLLFELVINYEDGTRETIRSDHEWKYDLSPITFNCIYGGEDYDARREQKGWNQVGFNDSHWRPVVVQEAPKGVLRSQMAPPVKIMERYDIQKVTKLNSEQVMAASKSTKRTVDPSAVVLDMGQNLAGFPEITVRGKRGQKVTLIVAEALMDEGACNQRQTGRQHYYEYTLKGEGDEIWHPRFSYYGFRYIQVEGAVLKGQKNPQKLPVLKNIQSCFIYNSAKKVSTFESSNRIFNAAHRLIEKAVRSNMQSVFTDCPHREKLGWLEQVHLNGPGLLYNYDLTAYAPQIMQNMADAQHPNGAMPTTAPEYVVFEGPGMDAFAESPEWGGSLVIFPFMYYETYGDDSLIKKYYQHMRRYTDYLKTRADNGILSFGLGDWYDYGDFRAGFSRNTPVPLVATAHYYMTVMYLIKAARMVGNEFDVRYYSSLAYDIMVAFNKRFLDSNTAQYGTGSQASNALPIFLQMIQSTGDKGDYTPDASLAAKVLTNLIKDVESHGNRLTTGDVGNRYLIQTLARNGQHELIYKMFNHEEAPGYGFQLKFGATTLTEQWDPRQGSSWNHFMMGQIDEWFFNSLIGIRPSTTLSASVNEKDEPMQGYQKFVIAPKPVGDLKYVKSTYETLYGTILVDWTRQSGTFTLNVSVPVNTTAIVYLPGEKEPKEVQSGTYKFVAAE”, the “soluble on expression in E. coli” value is reported as “not soluble”.
For DTHFPICIFCCGCCHRSKCGMCCKT, the “soluble on expression in E. coli” value was “soluble”.
In the case of “MTGFAPQAGLPSHSVQVADHFDGNSPRGSPMSSGGHPVDRNRGLQPQKEAFSGPAAGKPFHPQALSKYSRHYSPEDELSAEAQPIAAYKIVSQSNKQLLAGSVSVTSLSSRTTELATADPFALAPFPSKAGKQKP”, the “soluble on expression in E. coli” value is reported as “soluble”.
For “METKPSQGLYPLHRCKTIHLVRHAQGIHNVEGEKNHKAYLSEDLFDAHLTPLGWQQVDNLHKHVNASGISNRIELVVVSPLLRTLQTAVGTFGGEGYKDGVNTPLLMTAGAGNSDRPAISRLNRPPFIAVESCREHLGVHPCDRRSNITKYRELFPAIDFSLIETDEDVLWKPDIREEDKDIATRGVKFFNWLSTRKEKEIAVVTHSGFLYQTLNSFGNDCDPSVKNEISKKFVNCELRSFVLVDKCMSSSDPPMTNYPGTILTGEDASSDIADQK”, the “soluble on expression in E. coli” value was “soluble”.
With “MERVVINVSGLRFETQMKTLAQFPETLLGDPEKRTQYFDPLRNEYFFDRNRPSFDAILYYYQSGGRLKRPVNVPFDIFTEEVKFYQLG” the “soluble on expression in E. coli” value was “soluble”.
In the case of “MSLTKSYAEEQKRSVSEKLLKEKKLSLILDLDGTIVFTNPELCIPLESEEEPITPEQGFYFEIPEQNAKVFIRFRDGIVTFMEKVSKLYDIHVVTLGQKEYAFAIVNAINKLRNIPFITGDLVTAEDCSSVIVCDEKDTNDGLIDREETNERRSVKRSIPTMGKEEMQVIVDDRIDVWDNKNVVQICEYVPSTNQVDTELVRVTEVLQNIYTKFYDEHIEDVKEILHLFRKKILENKNLYFNREGHHHHHH”, the “soluble on expression in E. coli” value is reported as “soluble”.
For “MEKAYKILSVQENISHKKAKALIDSGLVSIGGKKLMVARKELPKNTHFSVQKVEKPSVIFEDENILALFKPPFIESYDLASFFKGWALLHRLDKETSGVVLLVKENSEFHLKAKKAFKDRAVKKEYLALTQGIIEEEREINAPILTFKTTKAFSKISKKGQEAVTIITPLKIINKKTLLKVGIKTGRTHQIRVHLKHINHPIIGDTLYNNEPSLAKRLMLHAHKIALLGYEFEAIAPKEFEILEHHHHHH”, the “soluble on expression in E. coli” value was “soluble”.
With “MSLKPWLITPERLTSEQIGLLDHFFDRGLERLHLRLPSAGEEDYSQVIEAVAACYRRRIVVHDHPRLVGRYGLCGLHLPERVWKGMTDRPQLPDGCTVSASCHAIEDIESFPFRLDYCFLSPVFDSLCKVGYAGRFSPDSLGDRLQRLHLPVVALGGITPDRLPQLRRAGFASAAALGYVWLVEGRELMRWQELCTPAVICVGGVDPSAGAGITADVRTAENMGVRAYTVATAITFQGSGSYRGERWVDSADIIRQIESLSAEMEPAVAKIGLIRDSDTLSLVVDCLKKVFPSIRIVWDPVLRASADSSAGQADRFNLEDITALSRIDFITPNLPEARHLLGCEPDDETLLDFYRRSGVGLVLKGGHAGESVVTDRIVYDGRCEALRLLRGGTGKHGTGCAHSTAFAAALALEQEPFTAAGMAQLYVSRLRERASGLLAMHKDLPVDPVVRLMSEIDLQFITHRQPDLSELEEAEAVCRIGVRWVQLRMKEASDEEMLHTACAVKAVCRHHGALFVVNDRVEIARQVDADGVHLGKEDMAIVEARRILGSNKIIGRTCNTMEDVRRAYAEGADYVGIGPYRYTETKQRLAPVLGLEGYKAIAACMQAEGIRLPAFAIGGIEDADIPLIRDCGIGGIAVSGSLIRKIKKEGHHHHHH” the “soluble on expression in E. coli” value was “soluble”.
In the case of “TPDADKKGAVFALDQEPEAQAAVVALDPLSGAVKAMVGGYDFRKSQFNRALQAKRNPGSAFKPLIYAAALDKGITPATIFDDSPVEYESGKEKAWKPKNYDNIYRGNVTMREALTNSINVVSVKILEQIGVDYAIEYAKKLGITSPLSANLTLALGSSSLTPLELTSAYAVFASGGYRTTPYFVTRVEDAEGRTLEETAPPVIPRFSVMTSAESSPLEASPAPPATAGDSASTAVPVIAPETAYIMTNLMESVVQSGTGQRARAVGRPVAGKTGTTNDMKDAWFVGYIPQLVAGVWVGYDQERSLGAGGSGGQAAAPIWTEFMRRAVAGIPSRDF”, the “soluble on expression in E. coli” value is reported as “not soluble”.
With “MGSDKIHHHHHHMKIFLDTANLEEIKKGVEWGIVDGVTTNPTLISKEGAEFKQRVKEICDLVKGPVSAEVVSLDYEGMVREARELAQISEYVVIKIPMTPDGIKAVKTLSAEGIKTNVTLVFSPAQAILAAKAGATYVSPFVGRMDDLSNDGMRMLGEIVEIYNNYGFETEIIAASIRHPMHVVEAALMGVDIVTMPFAVLEKLFKHPMTDLGIERFMEDWKKYLENLKK” the “soluble on expression in E. coli” value was “soluble”.
For “MGHHHHHHSHMTSYDQIWETFLNNCETSDFDVPQQEEDIYKSIRNAILHFNNRLRDNLKADNSTETVNRELSEDDLLILAHFLRYIFLLNKKTLFENTWQPFTNDVGIKNFGTQLNSLKQSVMDQKDEIERLILNAAVDYL”, the “soluble on expression in E. coli” value was “soluble”.
